From the supplement of paper PMC10065799, “High-throughput profiling of sequence recognition by tyrosine kinases and SH2 domains using bacterial peptide display” (eLife, 2023)

What was measured:
AncSZ = assay: phosphorylation enrichment, bacterial display (enrichment ratio); higher = better substrate or ligand; peptides without Tyr show the background
EPHB1 = EPHB1 (UniProt P54762); assay: as above
EPHB2 = EPHB2 (UniProt P29323); assay: as above
FGFR1 = FGFR1 (UniProt P11362); assay: as above
FGFR3 = FGFR3 (UniProt P22607); assay: as above
Fer (mouse) = assay: as above
Fes = Fes (UniProt P07332); assay: as above
Chain of Fes (P07332 whole entry, looked up): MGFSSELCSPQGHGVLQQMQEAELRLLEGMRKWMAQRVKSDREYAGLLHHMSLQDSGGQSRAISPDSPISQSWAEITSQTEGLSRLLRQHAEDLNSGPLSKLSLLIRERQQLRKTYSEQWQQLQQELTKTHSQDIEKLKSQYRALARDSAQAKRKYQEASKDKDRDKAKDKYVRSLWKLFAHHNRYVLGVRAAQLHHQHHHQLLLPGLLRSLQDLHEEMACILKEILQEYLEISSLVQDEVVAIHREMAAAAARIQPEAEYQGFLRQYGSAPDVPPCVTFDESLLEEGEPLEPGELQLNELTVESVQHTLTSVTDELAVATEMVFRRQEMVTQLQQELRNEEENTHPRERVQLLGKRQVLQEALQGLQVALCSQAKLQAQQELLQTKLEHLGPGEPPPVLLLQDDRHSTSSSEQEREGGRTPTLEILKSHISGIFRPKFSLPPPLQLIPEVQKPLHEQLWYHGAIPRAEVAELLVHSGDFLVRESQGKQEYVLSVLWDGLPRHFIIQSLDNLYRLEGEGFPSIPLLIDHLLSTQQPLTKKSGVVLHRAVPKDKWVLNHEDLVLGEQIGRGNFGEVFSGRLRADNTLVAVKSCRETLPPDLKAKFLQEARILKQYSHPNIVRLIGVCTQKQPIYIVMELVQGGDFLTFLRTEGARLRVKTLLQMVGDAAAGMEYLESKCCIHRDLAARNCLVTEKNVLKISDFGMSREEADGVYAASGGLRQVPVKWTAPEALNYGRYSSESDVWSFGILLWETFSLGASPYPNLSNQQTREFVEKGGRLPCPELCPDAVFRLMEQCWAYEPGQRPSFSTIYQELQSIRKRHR

Fyn = Fyn (UniProt P06241); assay: as above
Chain of Fyn (P06241 whole entry, looked up): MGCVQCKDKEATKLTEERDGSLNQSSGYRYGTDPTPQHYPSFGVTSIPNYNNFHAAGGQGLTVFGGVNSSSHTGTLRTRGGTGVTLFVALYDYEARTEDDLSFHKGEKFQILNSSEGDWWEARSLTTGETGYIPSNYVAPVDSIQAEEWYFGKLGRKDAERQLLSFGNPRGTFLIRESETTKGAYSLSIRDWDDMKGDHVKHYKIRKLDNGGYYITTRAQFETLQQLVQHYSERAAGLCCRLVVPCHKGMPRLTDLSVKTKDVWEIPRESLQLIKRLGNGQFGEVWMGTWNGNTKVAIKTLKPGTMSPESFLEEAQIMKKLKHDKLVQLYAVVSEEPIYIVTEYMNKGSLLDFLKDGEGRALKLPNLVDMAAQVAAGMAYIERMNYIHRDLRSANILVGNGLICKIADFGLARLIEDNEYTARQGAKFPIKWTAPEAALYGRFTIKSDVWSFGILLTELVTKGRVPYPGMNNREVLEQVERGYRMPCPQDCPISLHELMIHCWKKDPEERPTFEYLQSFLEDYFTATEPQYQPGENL

Hck = Hck (UniProt P08631); assay: as above
Chain of Hck (P08631 whole entry, looked up): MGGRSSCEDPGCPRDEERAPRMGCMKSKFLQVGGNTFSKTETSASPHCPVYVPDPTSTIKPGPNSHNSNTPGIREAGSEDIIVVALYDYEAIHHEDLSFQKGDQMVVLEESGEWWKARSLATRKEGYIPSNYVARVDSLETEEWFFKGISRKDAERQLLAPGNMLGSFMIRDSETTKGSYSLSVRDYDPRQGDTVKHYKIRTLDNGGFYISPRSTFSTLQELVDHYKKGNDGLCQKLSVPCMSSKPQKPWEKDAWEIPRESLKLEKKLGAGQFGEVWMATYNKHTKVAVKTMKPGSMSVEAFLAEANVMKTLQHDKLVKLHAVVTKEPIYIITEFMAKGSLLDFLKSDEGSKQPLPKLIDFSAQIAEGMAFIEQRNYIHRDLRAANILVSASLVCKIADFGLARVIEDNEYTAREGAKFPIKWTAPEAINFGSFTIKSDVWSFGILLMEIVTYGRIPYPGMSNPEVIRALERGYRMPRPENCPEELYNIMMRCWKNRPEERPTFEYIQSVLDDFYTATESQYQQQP

Jak2 = Jak2 (UniProt O60674); assay: as above
Chain of Jak2 (O60674 whole entry, looked up): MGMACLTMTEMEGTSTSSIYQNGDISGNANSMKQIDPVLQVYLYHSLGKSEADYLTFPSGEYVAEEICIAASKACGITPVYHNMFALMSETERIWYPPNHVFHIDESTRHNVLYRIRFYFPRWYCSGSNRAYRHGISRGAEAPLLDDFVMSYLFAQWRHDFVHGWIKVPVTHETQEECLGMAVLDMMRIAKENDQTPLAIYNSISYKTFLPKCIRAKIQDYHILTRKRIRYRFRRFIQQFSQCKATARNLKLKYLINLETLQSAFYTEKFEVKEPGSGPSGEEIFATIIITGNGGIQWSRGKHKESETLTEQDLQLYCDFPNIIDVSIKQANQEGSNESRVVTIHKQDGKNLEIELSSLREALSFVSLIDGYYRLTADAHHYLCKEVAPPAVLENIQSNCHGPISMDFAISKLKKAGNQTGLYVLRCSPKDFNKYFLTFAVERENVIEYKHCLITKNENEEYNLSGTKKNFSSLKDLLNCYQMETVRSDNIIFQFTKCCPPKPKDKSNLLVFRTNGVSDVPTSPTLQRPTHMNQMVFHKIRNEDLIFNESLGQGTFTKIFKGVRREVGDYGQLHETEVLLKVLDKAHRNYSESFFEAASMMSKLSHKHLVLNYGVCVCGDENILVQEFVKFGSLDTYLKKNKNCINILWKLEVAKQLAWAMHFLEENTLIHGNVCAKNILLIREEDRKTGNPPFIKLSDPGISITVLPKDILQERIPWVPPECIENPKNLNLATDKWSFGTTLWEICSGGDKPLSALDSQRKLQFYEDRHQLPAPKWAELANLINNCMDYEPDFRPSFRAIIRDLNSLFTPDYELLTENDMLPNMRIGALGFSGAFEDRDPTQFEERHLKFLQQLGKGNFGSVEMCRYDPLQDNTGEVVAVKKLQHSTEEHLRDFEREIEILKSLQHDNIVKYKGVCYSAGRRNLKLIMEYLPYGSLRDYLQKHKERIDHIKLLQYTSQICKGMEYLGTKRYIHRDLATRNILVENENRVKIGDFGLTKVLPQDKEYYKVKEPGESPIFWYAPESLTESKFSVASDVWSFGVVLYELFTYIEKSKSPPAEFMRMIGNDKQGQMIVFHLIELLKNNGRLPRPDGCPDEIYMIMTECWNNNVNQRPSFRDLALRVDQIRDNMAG

MERTK = MERTK (UniProt Q12866); assay: as above
c-Abl (mouse) = assay: as above
c-Src = assay: as above
Grb2 SH2 = Grb2 SH2 (UniProt P62993); assay: SH2 binding enrichment of the phosphorylated peptide, bacterial display (enrichment ratio); higher = better substrate or ligand; peptides without Tyr show the background
SHP2-C SH2 = assay: as above
c-Src SH2 = assay: as above
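Wherever SH2 binding enrichment of the phosphorylated peptide, bacterial display is given: peptide library displayed on the E. coli surface as eCPX fusions, selected cells deep-sequenced, score is each peptide's frequency after selection divided by its frequency in the input.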
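Wherever phosphorylation enrichment, bacterial display is given: 11-residue human phosphosite peptides and single-mutation variants displayed on the E. coli surface, counted by deep sequencing, each peptide's frequency after selection divided by its frequency in the unselected input library; frequency after pTyr selection over input frequency; kinase dosed for 20-30% of maximal phosphorylation in three min.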

Chain of EPHB2 (P29323 whole entry, looked up): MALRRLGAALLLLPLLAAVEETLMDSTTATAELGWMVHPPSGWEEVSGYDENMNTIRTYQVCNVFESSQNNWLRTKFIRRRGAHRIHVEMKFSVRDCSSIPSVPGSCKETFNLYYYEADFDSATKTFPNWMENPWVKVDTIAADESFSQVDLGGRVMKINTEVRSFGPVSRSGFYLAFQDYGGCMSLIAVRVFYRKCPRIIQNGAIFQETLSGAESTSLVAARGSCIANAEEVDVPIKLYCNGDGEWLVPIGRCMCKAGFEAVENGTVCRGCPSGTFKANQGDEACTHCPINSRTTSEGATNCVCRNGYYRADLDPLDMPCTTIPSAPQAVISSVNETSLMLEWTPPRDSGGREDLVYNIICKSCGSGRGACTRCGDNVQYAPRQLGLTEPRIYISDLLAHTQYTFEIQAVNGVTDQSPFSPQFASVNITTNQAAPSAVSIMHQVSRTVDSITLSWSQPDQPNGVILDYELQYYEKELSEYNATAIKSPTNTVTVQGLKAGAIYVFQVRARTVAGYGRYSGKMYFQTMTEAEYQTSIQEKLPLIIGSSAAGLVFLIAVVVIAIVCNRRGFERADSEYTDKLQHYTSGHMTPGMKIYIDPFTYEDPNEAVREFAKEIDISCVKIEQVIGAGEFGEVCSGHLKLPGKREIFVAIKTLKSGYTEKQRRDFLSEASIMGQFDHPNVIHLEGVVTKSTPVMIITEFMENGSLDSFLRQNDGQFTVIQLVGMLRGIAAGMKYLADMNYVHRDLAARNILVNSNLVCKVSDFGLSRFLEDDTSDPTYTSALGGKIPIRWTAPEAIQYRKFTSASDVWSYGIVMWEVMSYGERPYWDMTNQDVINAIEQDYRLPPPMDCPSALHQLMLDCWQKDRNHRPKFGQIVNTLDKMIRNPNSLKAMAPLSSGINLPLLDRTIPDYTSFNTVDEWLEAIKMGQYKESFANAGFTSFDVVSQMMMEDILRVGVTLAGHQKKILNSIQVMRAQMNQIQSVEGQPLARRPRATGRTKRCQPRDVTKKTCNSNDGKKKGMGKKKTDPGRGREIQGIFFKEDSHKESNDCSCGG
Chain of EPHB1 (P54762 whole entry, looked up): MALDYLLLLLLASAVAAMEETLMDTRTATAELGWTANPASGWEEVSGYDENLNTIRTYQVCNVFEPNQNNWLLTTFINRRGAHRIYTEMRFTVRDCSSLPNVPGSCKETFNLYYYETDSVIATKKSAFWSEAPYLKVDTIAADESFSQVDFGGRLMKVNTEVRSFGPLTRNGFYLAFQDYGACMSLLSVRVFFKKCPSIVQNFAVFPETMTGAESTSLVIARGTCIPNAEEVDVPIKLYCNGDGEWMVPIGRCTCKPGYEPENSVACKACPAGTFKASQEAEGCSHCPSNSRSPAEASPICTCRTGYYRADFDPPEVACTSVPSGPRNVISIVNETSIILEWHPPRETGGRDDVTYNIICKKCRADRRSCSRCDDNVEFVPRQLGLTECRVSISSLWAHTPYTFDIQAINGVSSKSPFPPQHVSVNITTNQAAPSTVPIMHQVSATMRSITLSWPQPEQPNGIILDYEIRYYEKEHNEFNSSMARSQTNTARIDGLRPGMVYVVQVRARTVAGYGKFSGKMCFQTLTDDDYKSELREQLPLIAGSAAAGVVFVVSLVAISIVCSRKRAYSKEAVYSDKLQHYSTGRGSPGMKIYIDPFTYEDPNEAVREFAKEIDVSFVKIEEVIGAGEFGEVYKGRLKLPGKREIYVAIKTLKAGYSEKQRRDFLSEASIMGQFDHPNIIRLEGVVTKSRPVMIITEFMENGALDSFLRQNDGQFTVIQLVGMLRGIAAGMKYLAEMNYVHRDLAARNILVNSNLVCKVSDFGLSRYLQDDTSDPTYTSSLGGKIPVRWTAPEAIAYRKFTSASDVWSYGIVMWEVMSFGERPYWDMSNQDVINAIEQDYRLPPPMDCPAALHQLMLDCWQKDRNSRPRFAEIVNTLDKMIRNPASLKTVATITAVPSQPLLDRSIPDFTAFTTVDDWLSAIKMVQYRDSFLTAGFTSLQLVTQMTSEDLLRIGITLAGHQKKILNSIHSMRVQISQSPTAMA

Row | SH2 binding enrichment (Grb2 SH2) | SH2 binding enrichment (SHP2-C SH2) | SH2 binding enrichment (c-Src SH2) | Sequence | phosphorylation enrichment (AncSZ) | phosphorylation enrichment (EPHB1) | phosphorylation enrichment (EPHB2) | phosphorylation enrichment (FGFR1) | phosphorylation enrichment (FGFR3) | phosphorylation enrichment (Fer (mouse)) | phosphorylation enrichment (Fes) | phosphorylation enrichment (Fyn) | phosphorylation enrichment (Hck) | phosphorylation enrichment (Jak2) | phosphorylation enrichment (MERTK) | phosphorylation enrichment (c-Abl (mouse)) | phosphorylation enrichment (c-Src)
1 | 0.877 | 0.666 | 0.504 | VEDPEYAVTQP [STOML2_Y124_L129P] | 1.54 | 0.567 | 0.602 | 0.646 | 0.848 | 0.664 | 1.33 | 0.543 | 0.608 | 1.32 | 0.473 | 1 | 0.58
2 | 0.789 | 0.793 | 0.431 | SDVDLYQVRIA [PSMD9_Y70_T74I] | 0.92 | 0.594 | 0.497 | 0.598 | 0.583 | 0.756 | 0.892 | 1.86 | 4.07 | 1.04 | 0.463 | 0.579 | 2.13
3 | 0.762 | 0.628 | 0.435 | NVPILYTASQA [CTNNA1_Y222] | 0.553 | 0.432 | 0.449 | 0.464 | 0.501 | 0.472 | 0.597 | 0.421 | 0.444 | 0.688 | 0.687 | 0.576 | 0.418
4 | 0.768 | 0.332 | 0.593 | QEIATYRRQLE [KRT14_Y415_L418Q] | 1.11 | 0.75 | 1.27 | 0.65 | 0.808 | 0.601 | 1.01 | 0.83 | 0.559 | 0.976 | 0.445 | 0.773 | 0.583
5 | 0.88 | 0.492 | 0.837 | IIEDPYYGNDS [ACP1_Y132] | 1.46 | 0.561 | 0.623 | 0.851 | 0.869 | 0.632 | 1.22 | 0.958 | 0.918 | 1.33 | 0.522 | 0.849 | 2.73
6 | 0.962 | 0.878 | 0.62 | IGRWVYPLTPE [EIF2B5_Y319_R315G] | 1.33 | 0.563 | 0.58 | 0.564 | 0.646 | 0.461 | 1.02 | 0.49 | 0.509 | 0.874 | 0.551 | 0.717 | 0.502
7 | 0.756 | 0.58 | 0.325 | RIVEIYTRRLQ [GCH1_Y175_S176T] | 0.936 | 0.503 | 0.462 | 0.515 | 0.632 | 0.436 | 0.949 | 0.543 | 0.613 | 0.637 | 0.605 | 0.517 | 1.01
8 | 1.2 | 0.713 | 0.693 | QYRFIYMAVQH [PTPN11_Y515] | 1.32 | 1.52 | 0.947 | 0.667 | 1.48 | 1.29 | 1.22 | 1.82 | 2.21 | 1.21 | 0.729 | 0.973 | 1.93
9 | 0.763 | 0.424 | 0.604 | TVDASYYGGRG [ANTXR2_Y380] | 0.512 | 0.411 | 0.503 | 0.546 | 0.561 | 0.559 | 0.66 | 0.73 | 1.14 | 0.609 | 0.495 | 0.576 | 0.642
10 | 0.788 | 0.976 | 0.415 | ENAGYYFRVSA | 1.26 | 0.568 | 0.665 | 0.508 | 0.719 | 0.456 | 1.26 | 0.435 | 0.476 | 1.21 | 0.347 | 0.775 | 0.322
11 | 0.735 | 0.625 | 0.482 | RPFRPYIIRGM [LRP5_Y1531_YF] | 1.14 | 0.633 | 0.709 | 1.03 | 0.88 | 0.456 | 1.2 | 0.611 | 0.655 | 0.748 | 0.781 | 0.532 | 0.647
12 | 0.711 | 0.97 | 0.521 | ADEEEYEIIAA [FEStide_E_2014] | 1.74 | 0.662 | 0.683 | 0.635 | 1.08 | 0.73 | 1.32 | 0.619 | 0.654 | 1.45 | 0.564 | 1.09 | 0.724
13 | 0.399 | 0.573 | 0.544 | LKYAIYFEVRE [LAMA2_Y1258_A1261V] | 2.08 | 1.67 | 1.23 | 1.09 | 1.39 | 0.929 | 2.57 | 1.17 | 0.827 | 2.44 | 0.954 | 2.14 | 1.45
14 | 0.907 | 0.612 | 0.624 | FAELVYTSFWH [ASS1_Y322_G324S] | 2.31 | 2.99 | 3.44 | 5.31 | 4.28 | 8.86 | 1.89 | 8.65 | 7.37 | 2.11 | 7.38 | 14 | 6.82
15 | 0.88 | 0.68 | 0.564 | IVEELYAIPPD [PEAK1_Y797_S792I] | 3.84 | 4.29 | 13.3 | 6.62 | 6.02 | 6.14 | 1.26 | 3.48 | 4.27 | 1.27 | 8.66 | 10 | 3.23
16 | 1.02 | 0.626 | 4.1 | KSIQLYDTPYE [SHB_Y297_G293S] | 1.29 | 11.6 | 15.8 | 0.521 | 0.643 | 3.02 | 1.07 | 0.827 | 1.76 | 0.921 | 4.79 | 1.03 | 0.986
17 | 0.847 | 0.815 | 0.521 | LFLASYCIGGG [UBD_Y161_C160S] | 1.22 | 0.655 | 0.788 | 1.06 | 1.04 | 0.671 | 1.63 | 0.416 | 0.533 | 1.21 | 0.537 | 0.886 | 0.495
